Data on five substances can be found in publication PMC10703496.

The test has as its target 6×His-tagged receptor-binding domain (RBD) of SARS-CoV-2 spike, B.1.617.2 (Delta) (SARS-CoV-2) (UniProt P0DTC2). In words: SPR. On the technique in general: SPR reads the build-up and loss of mass on a sensor chip optically.
The Kd is a measure of binding affinity in units of concentration. Low readings indicate tighter binding, high ones weaker binding. As a reminder, the koff is a measure of how fast the partners let go of each other. A higher koff goes with fast dissociation. Usually kon stands for a measure of how fast the partners come together. A high value points to faster complex formation. In the case of “ACE2(18–615)-WT: monomeric ACE2 peptidase domain (residues 18–615) fused to the N-terminal end of fu (from UniProt Q9BYF1-1;P02768)”, the Kd was determined as 175 nM, the koff was 0.0083 s⁻¹ and the kon worked out at 47000 M⁻¹ s⁻¹.

“ACE2(18–740)-QMP: truncated dimeric human ACE2 (residues 18–740) fused to the N-terminal end of engi (from UniProt Q9BYF1-1;P02768)” registered a Kd of 2 nM, a koff of 0.00024 s⁻¹ and a kon of 119000 M⁻¹ s⁻¹.

With “ACE2(18–740)-WT: truncated dimeric human ACE2 (residues 18–740) fused to the N-terminal end of full- (from UniProt Q9BYF1-1;P02768)”, the Kd amounted to 1.3 nM, the koff worked out at 0.00021 s⁻¹ and the kon turned out to be 159000 M⁻¹ s⁻¹.

In the case of “ACE2-YTY-QMP: dimeric ACE2 with T27Y/L79T/N330Y (YTY) fused to QMP albumin (from UniProt Q9BYF1-1;P02768)”, the Kd came out at 0.2 nM, the koff is 4e-05 s⁻¹ and the kon turned out to be 201000 M⁻¹ s⁻¹.

In turn, “ACE2(18–615)-QMP: monomeric ACE2 peptidase domain (residues 18–615) fused to the N-terminal end of QMP human albumin (from UniProt Q9BYF1-1;P02768)” showed a Kd of 80.3 nM, a koff of 0.0258 s⁻¹ and a kon of 321000 M⁻¹ s⁻¹.
